{
  "source": "patent US11029303B2",
  "about": "“PAH antibodies and uses thereof” (The Administrators of the Tulane Educational Fund, priority 2015, dated 2021)",
  "molecules": {"B1": {"name": "Clone A10: scFv, amino acid sequence SEQ ID NO: 37; binds methylated phenanthrenes, prefers 2-methylphenanthrene (protein)", "scFv": "SAHAEAYLQQSGAELVKPGASVKLSCKASGYTFTSYWMHWVKQRPGQGLEWIGEINPRNGRSNYNEKFKNKATVTVDKYSNTAYMQLSSLTSDDSAVYYCTRDGGDYWGQGTTVTVSSGGGGSGGGGSGGGARGGGGSDIVLTQSHKFMSTSVGDRVSITCKASQDVGTAVAWYQQKPGQSPKLLIYWASTRHTGVPDRFTGSGSGTDFTLTISNVQSEDLADYFCQQYSSYPLTFGGGTKLEMKRAS"}, "B2": {"name": "Clone G8: scFv, amino acid sequence SEQ ID NO: 45; binds 4-methylphenanthrene most tightly (protein)", "scFv": "SAHAEAYLQQSGAELVRPGTSVKVSCKASGYVFTNFLIEWVKQRPGQGLEWIGVINPGNGGAAYNEKFKGKAILTADKSSSTAYMQLSSLTSDDSAVYFCARLPPSYDYDGDIDYWGQGTTVTVSSGGGGSGGGGSGGGARGGGGSDLVLTQSPASLAVALGQRATISCRASKSVTTSGYSLMHWYRQKPGQPPKLLIYPASNLESGVPARFSGSGSGTDFTLNIHPVEEEDAATYYCQHSRELPWTFGGGTKLEIKRAS"}, "B3": {"name": "Clone D7: scFv, amino acid sequence SEQ ID NO: 42; binds unmethylated and methylated phenanthrenes alike (protein)", "scFv": "SAHAEAYLQQSGAELVRPGTSVKVSCKASGYAFTKYLIEWVKQRPGQGLEWIGVINPGSGSTSYNEKFRYKAILTADTSSSTAYMQLSSLTSDDSAVYFCATIPASYRSDSLDCWGQGTTVTVSSGGGGSGGGGSGGGARGGGGSDTTVTQSHKFMSTSVGDRVSITCKASQDVGTAVAWYQQKPGQSPKLLIYWASTRHTGVPDRFTGSGSGTDFTLTISNVQSEDLADYFCQQYSSYPWTFGGGTKLEMKRAS"}},
  "format_in_all_cases": "binding",
  "key": {"[1]": {"assay": "Competitive ELISA with purified scFv, ligand phenanthrene", "conditions": "Phen-BSA coated plate; 5% DMSO", "method": "(§1) Competitive ELISA was performed in 96 well high binding plates (Corning, Corning, N.Y.). Each well was coated with 2 μg/ml antigen at 4° C. overnight and blocked with 3% BSA. Antibody scFv was incubated in the antigen-coated well with or without soluble competitor, and the binding of scFv was accessed using anti-myc antibody (9E10) and goat-antimouse-HPR antibody (Sigma Aldrich, MO). The HRP signal was detected by adding Sureblue TMB microwell peroxidase substrate (KPL, Gaithersburg, Md.) and the reaction was stopped after 5 minutes using 1 M HCl. The incubation steps were performed at room temperature for an hour. […]\n(§2) Competitive ELISA or indirect ELISA was performed in 96-well high binding plates (Corning, Corning, N.Y.). […] The HRP signal was detected by adding Sureblue TMB microwell peroxidase substrate (KPL, Gaithersburg, Md.) and the reaction was stopped after 5 min using 1N HCl. The quantified signals were measured by reading […] values from microplate photometer. […]\n(§3) Since A10, D7 and G8 represent three distinct family based on the sequence alignment, the inventors next explored the binding characteristics of these three clones as models to of the antibodies present in the immune library. Purified scFv were prepared and analyzed by competitive ELISA for their abilities to recognize unsubstituted phenanthrene or methylated phenanthrenes, as shown in FIG. 55. […]"}, "[2]": {"assay": "Cross-reactivity of scFv clones against EPA 16 PAHs (competitive ELISA)", "conditions": "for cross-reactivity / inhibition by the 16 EPA PAHs: 50 μM PAH, less than 20% decrease = non-reactive", "method": "(§4) Competitive ELISA was performed similar as described in Example 3, except that an anti-myc antibody (9E10) was added before applying goat-antimouse-HPR secondary antibody to detect myc-tag on scFv construct.\n(§5) A real-world field sample is a complex mixture and contains a variety of PAH compounds. An understanding of the abilities of antibody to recognize various PAHs can greatly facilitate the development and application of these antibodies into field studies. In the final assessment, the inventors determined the cross-reactivity of these three scFv clones among 16 structurally related EPA priority PAH species via competitive ELISAs. First, the inventors inhibited the binding of scFv to the immobilized Phen-BSA by high concentrations (50 μM) of PAHs to determine if the scFv can recognize the ligand."}, "[3]": {"assay": "Competitive ELISA with purified scFv, ligand 9-MP", "conditions": "Phen-BSA coated plate; 5% DMSO", "method": "as §1, §2, §3"}, "[4]": {"assay": "Competitive flow cytometry of monoclonal yeast cells", "conditions": "soluble Phen versus 2-MePhen", "method": "For flow cytometry, the yeast library was incubated in growth medium SD-CAA at 30° C. overnight for activation. The next day, activated yeast cells were diluted in induction medium SG/R-CAA at OD600=0.5, and cultured again at 30° C. for 16 hrs. After induction, 10^7 induced yeast cells (OD600=0.5) were washed twice with 0.5 ml wash buffer I (0.5% BSA supplemented with 2 mM EDTA), and once with 0.5 ml wash buffer II (0.5% BSA). Yeast cells were first incubated with 50 μl competitor (phenanthrene or 2-methylphenanthrene, 200 μM in PBS containing 1% DMSO) for 30 min with rotation at 25° C. An additional aliquot (50 μl) of biotinylated protein-conjugate (BSA-biotin, phen-BSA-biotin, or 2mp-BSA-biotin at concentrations between 1 and 100 nM) containing 2 μg/ml anti-myc antibody 9E10 was then added and the cells were incubated for another 30 min. Yeast cells were washed 3 times with wash buffer II and stained with 4 μg/ml goat-antimouse-PE (Life Technologies, Grand Island, N.Y.) and 10 μg/ml streptavidin-Alexa633 (Life Technologies, Grand Island, N.Y.) in the dark room at 4° C. for an hour. The stained yeast cells were washed three times with wash buffer II and resuspended in 1 ml PBS for flow-cytometry analysis. The selected yeast population was sorted into 2 ml pre-warmed YPD medium, and incubated at 30° C. without shaking for 30 min before transferring into 30° C. shaker for two days. The sorted pool was analyzed again by flow cytometry using the same staining procedure. […]\nYeast cells collected after 2nd sort were spread onto agar plates at various dilution level to obtain isolated single colonies. […] A total of 184 individual clones sorted from Pool 1 were picked and analyzed for their binding to Phen-BSA-Biotin in the presence of soluble Phen or 2-MePhen."}, "[5]": {"assay": "Competitive ELISA with purified scFv, ligand 2-MP", "conditions": "Phen-BSA coated plate; 5% DMSO; read-out: affinity (IC50)", "method": "as §1, §2, §3"}, "[6]": {"assay": "Competitive ELISA with purified scFv, ligand 3-MP", "conditions": "Phen-BSA coated plate; 5% DMSO", "method": "as §1, §2, §3"}, "[7]": {"assay": "Cross-reactivity competitive ELISA, ligand indeno-[1,2,3-cd]-pyrene", "method": "as §4, §5"}, "[8]": {"assay": "Competitive ELISA with purified scFv, ligand 4-MP", "conditions": "Phen-BSA coated plate", "method": "as §1, §2, §3"}, "[9]": {"assay": "Competitive ELISA with D7 in artificial seawater (ONR7a) and crude oil", "method": "FIG. 74 is (A) a graph showing a comparison of competitive ELISA for phenanthrene, an abundant PAH in crude oil, in phosphate-buffered saline (ionic strength of serum) and ONR7a, an artificial environmental matrix that mimics seawater. The limit of detection of phenanthrene in this matrix is ˜1 μM. Compared with two buffer PBS and ONR7A (article seawater), the IC50s of two curves were no different than 2 fold.\nFIG. 77 is a bar graph showing that the D7 antibody can detect the model PAH, phenanthrene in a background of crude oil (4 and 0.8 mL/L). At both concentrations of crude oil, the presence of 500 μM phenanthrene decreased the absorbance in the immunoassay by 30% (*, p<0.05).\nThe D7 antibody can detect phenanthrene in the presence of crude oil at concentrations similar to those found in oil spills (0.8-4 mL per liter of seawater). At both concentrations tested (0.8 and 4 mL crude oil/L of synthetic seawater), the D7 antibody was able to detect phenanthrene, as shown by the 30% decrease in absorbance in the competitive ELISA. This will form the basis for an ELISA to determine the measurement and degradation of PAHs in crude oil. (see FIG. 77)."}, "[10]": {"assay": "Cross-reactivity competitive ELISA, ligand fluoranthene", "conditions": "ligand 200 μM to 0.091 μM; read-out: affinity (IC50)", "method": "as §4, §5"}, "[11]": {"assay": "Cross-reactivity competitive ELISA, ligand pyrene", "conditions": "ligand 200 μM to 0.091 μM; read-out: affinity (IC50)", "method": "as §4, §5"}},
  "note": "Entries after “also recorded” stand apart in the source; their conditions may differ.",
  "data": [
    {"molecule": "B1", "values": [
      {"measurement": "recognition of parent phenanthrene", "setting": "[1]", "value": "did not recognized"},
      {"measurement": "cross-reactivity / inhibition by the 16 EPA PAHs", "setting": "[2]; listed as A10", "value": "None of the 16 PAHs showed significant inhibition; also recorded: no cross-reactivity to other PAHs"},
      {"measurement": "recognition of 9-MP", "setting": "[3]", "value": "did not recognized"},
      {"measurement": "inhibition of binding to Phen-BSA-Biotin by soluble competitors", "setting": "[4]", "value": "some tendency for the 2-MePhen over unsubstituted Phen"},
      {"measurement": "IC50", "setting": "[5]", "value": 8.28, "unit": "µM"}
    ]},
    {"molecule": "B2", "values": [
      {"measurement": "IC50", "setting": "[6]", "value": 14.4, "unit": "µM"},
      {"measurement": "recognition of indeno-[1,2,3-cd]-pyrene", "setting": "[7]", "value": "did not recognize"},
      {"measurement": "cross-reactivity / inhibition by the 16 EPA PAHs", "setting": "[2]", "value": "some cross-reactivity to other PAHs"},
      {"measurement": "IC50", "setting": "[8]", "value": 0.94, "unit": "µM"},
      {"measurement": "affinity", "setting": "[8]; 5% DMSO", "value": "sub-micromolar"},
      {"measurement": "inhibition of binding to Phen-BSA-Biotin by soluble competitors", "setting": "[4]", "value": "unable to distinguish between the 2 soluble competitors"}
    ]},
    {"molecule": "B3", "values": [
      {"measurement": "decrease in absorbance in the immunoassay", "setting": "[9]; 500 μM phenanthrene, crude oil 4 and 0.8 mL/L", "value": 30, "unit": "%"},
      {"measurement": "activity in artificial seawater matrix (ONR7a)", "setting": "[9]; ONR7a", "value": "active"},
      {"measurement": "IC50", "setting": "[7]; ligand 200 μM to 0.091 μM, read-out: affinity (IC50)", "value": 1.5, "unit": "µM"},
      {"measurement": "IC50", "setting": "[10]", "value": 1.5, "unit": "µM"},
      {"measurement": "sensitivity for fluoranthene, indeno-[1,2,3-cd]-pyrene and pyrene relative to phenanthrenes", "setting": "[2]", "value": "about 4 fold"},
      {"measurement": "IC50", "setting": "[11]", "value": 1.5, "unit": "µM"},
      {"measurement": "inhibition of binding to Phen-BSA-Biotin by soluble competitors", "setting": "[4]", "value": "unable to distinguish between the 2 soluble competitors"}
    ]}
  ]
}
